Consider 7 sequences from a protein production outcome set (Wang et al. 2014).

The nature of this series: label from the status in PepcDB records.
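Note: failed if final PepcDB status was selected cloned or expressed and not failed if soluble or beyond.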

As for “MEIKYLSLCILAGILFVSQVNASENNGKDDVKYAALTQKDLDALPVEKRASVLDELGFIHEYGIGVPMNRERALQYYKQACELGGNYGCYNVKYAYQYGDGVAKDSAQANKYAKKMNLDNLLIEQEYIDKFSQGIYAAKVLADTDKSQRPEFINALFNLLNNRPESDALFFSRIGFNQEKTFRLATLWVQDGDPQMDYQLGLLTLNDFSGHYVDEPYKARPASLKWFRAATEKGVVEAQSLLGGIYSGGEGDEWGIKPDIQEAQKWYGQAAEQGDSDAQIALGKIYYSGATGRTDYAKALALFTQVENDGTNSRSTMPLSWMYYNGLGTAPDCDKAWSYYKKASRYVGKKVEEKIFLSKCAADIQSRKNNADALPRVTLKKASIFSRGITAKPKECALIFQIGTDKIRNMANLHITLELKNADGMATEETLMIPPFGLNTLGIDMQNHDVDPLVTPYDLPLYTQDFCHGIGDIHFTLKSATATINGKNVDLLKADSVRFLDKE”, the protein production entry was “failed”.
On to “MEILQFIGYGNMAQAILEGAHEILSKRFILEITGRNPEKIAPFLQEKNIQAQIVPYKDAIDIHQKFVFLLFKPYNLKDFNYQGQAKSVLSALAGVGFKALSDAIDSLHYLKCMPNIASKFALSSTAVCEKSPMPLISQKALSVIESFGNCVRVGHEELVDASVATNGSALAFLSLVANSLKDAGIREGLNARGSLELVKMSFKGFAKLLEKERPEMIIEQICTPKGATIEGLSVLEKKGVRGAFIEACHKSVKKMRL”, for which the protein production entry was “failed”.
Then “MEINADFTKPVVIDTDQLEWRPSPMKGVERRMLDRIGGEVARATSIVRYAPGSRFSAHTHDGGEEFIVLDGVFQDEHGDYPAGTYVRNPPTTSHVPGSAEGCTIFVKLWQFDPADRTQFSKNMEAELGAPVEGISTSLLHEDERETVTHRKLEPGANLTSEAAGGIEVLVLDGDVTVNDEVLGRNAWLRLPEGEALSATAGARGAKIWMKTGHLRFVRTPEV”, with “not failed”.
Then “MEINNNISSTIPLVDIVLVFCYVFSFYVIGPLTSSVIIALPLMFCCLYKKKWGYCLLLELKNSFIVRIFISQWLLIGIAVFYSCLHLTMELEYIKVLIAQMFHFICGIFIIIYLKYQKQYTTLKIEQTIIWAFLVQSIIQLIAMSIPSFAHFILYFSRAHDLQDAYGGGVRGLALSSGVGWSLGLAYGLIYIVFVKRYLLSGVNMKSTLIGILLLMGTIFAGRTGFVGACLGGIFFIISNQLSYRTKLMFVLKILLGVILFFLCIYFLFPSMTEHLVDNVFPFAFEPFYKMYYNDEFSTSSTDRLEEMWRVSTSVEEILYGSGSFIDTITGAYYKHIDIGILRNLFYWGIGGYILLIIYQLILIAPIKYNKIQRVSHFNMFFYKLLIIVYLFLLECKAVTIGLNKMTFSVIFLIAYFYFDEIHSKKYIAELR”, with “failed”.
Under “MEIRTLALKTPEGQPFTMWIYQHDQFTLFPDDRLWPLALIFPGGGFAGYSEREVEAVALKFIAKGYQAAVVKYNLTSDGPFYPTAATIGLAALSYVKRHAQELNADFDHVVVSGFSAGGHLVAVMTALGAQSEFLNNHGFEETKLVPFAQILSYPVIDLTMGFPTSQHEMMAVTTDESYWHAQELVTSQTPPTFIWATRTDELVPVVNSLVYLAALGEHNVPFESHIYAAGVHGLAFGDLADSRYHHPEDVVPRVQNWFPMALGWLRTLYASKNSTEILEHHHHHH” stands “failed”; under “MEISSGGSGMATRARGVVRDGTRALVLAVVGLPGALVLYVLAVVSLLLVPLGVGIVTTPWVLAGVRGFADWRRVVAAEWCGVRIPSGYRPVPVDANPWGRCFRLLSDRATWRDLIWLQVDMTAGFVTALLPAALLFYPLEGFALAAGLWRVFTDGTYIGWWYAFVPVSGQASALAAGALGVVFLVASYHLTPSLLRVHFLLTRAVLAPGQGELAERVRVLTETRRAAVDTSAAELRRIERDLHDGAQARLVAMGMDLGTIEALIEKDPAKARELLARARKSSADALTELRDLVRGIHPPVLAERGLGDAVRALALRVPIASEVNVDFDGRRAAAPVESAAYFAVSEVLTNAVKHAGADRVWIDLRHSDGMLRIAVTDNGRGGARIGTGSGLAGIERRLGTFDGVLAVSSPAGGPTMVSLEIPCELS”, “failed”; under “MEIVQEGIAKIIVPEIPKTVSSDMPVFYNPRMRVNRDLAVLGLEYLCKKLGRPVKVADPLSASGIRAIRFLLETSCVEKAYANDISSKAIEIMKENFKLNNIPEDRYEIHGMEANFFLRKEWGFGFDYVDLDPFGTPVPFIESVALSMKRGGILSLTATDTAPLSGTYPKTCMRRYMARPLRNEFKHEVGIRILIKKVIELAAQYDIAMIPIFAYSHLHYFKLFFVKERGVEKVDKLIEQFGYIQYCFNCMNREVVTDLYKFKEKCPHCGSKFHIGGPLWIGKLWDEEFTNFLYEEAQKREEIEKETKRILKLIKEESQLQTVGFYVLSKLAEKVKLPAQPPIRIAVKFFNGVRTHFVGDGFRTNLSFEEVMKKMEELKEKQKEFLEKKKQG”, “not failed”.
